Assay results reported in patent US20250387492A1, “HSP90-TARGETING CONJUGATES AND FORMULATIONS THEREOF” (Fusion Pharmaceuticals Inc., priority 2018, published 2025).
“Also recorded” adds a separate entry of the source.

Tests used:
[1] = Biodistribution in H69 tumor model; conditions: mouse, in vivo, 5 mg/kg
Description: (§1) In other studies, biodistribution of the conjugates was studied with H460 and H69 tumor models.

[2] = Biodistribution in H460 tumor model; conditions: mouse, in vivo, 5 mg/kg
Description: as §1

H460 tumor model mice = assay: Biodistribution in H460 tumor model; conditions: 5 mg/kg
Description: as §1

[3] = Lu levels in tumor, kidney and liver of mice at 0.5 mg/kg; conditions: for Tumor uptake (comparison): vs Conjugate 1 and Conjugate 2
H69 tumor model mice = assay: Biodistribution in H69 tumor model; conditions: H69 tumor model, 5 mg/kg, 48 h, individual animals
Description: as §1

in vivo = conditions: female, Nude, mouse, iv, 3.7 MBq, total radioactivity
Experimental: Radioactive conjugate accumulation was measured in tumor, plasma and healthy tissues of NCI-H460 tumor-bearing mice (lung cancer). […] For each tissue, the percent injected dose per gram of tissue % ID/g was calculated.

[4] = Concentration in H460 tumor, H460 tumor model, individual animals
[5] = Concentration in Mouse kidney, H460 tumor model, individual animals
[6] = Concentration in Mouse plasma, H460 tumor model, individual animals

CCNC(=O)c1nnc(-c2cc(C(C)C)c(O)cc2O)n1-c1ccc(CN2CCN(C(=O)CCNC(=O)[C@@H](CCC(=O)O)NC(=O)[C@@H](CCC(=O)O)NC(=O)[C@@H](CCC(=O)O)NC(=O)CN3CCN4CCN5CCN(CC3)CC(=O)[O][Lu]([O]C(=O)C4)[O]C(=O)C5)CC2)cc1 [Conjugate 2]
level at time molar at 24 h ([1]; Concentration in H69 tumor, H69 tumor model, individual animals): 240 nM
level at time molar at 24 h ([1]; Tumor Levels, H69, 5 mg/kg, H69): 330 nM
level at time molar at 1 h [2, 4]: 1170 nM
level at time molar at 48 h [2, 4]: 220 nM
level at time molar at 1 h [2, 5]: 1550 nM
level at time molar at 24 h [2, 5]: 1450 nM
level at time molar at 48 h [2, 5]: 540 nM
level at time molar at 1 h ([2]; Concentration in Mouse liver, H460 tumor model, individual animals): 16 nM
level at time molar at 24 h ([2]; Tumor Levels, H460 (2), H460 study (2)): 650 nM
Clearance from plasma (H460 tumor model mice; H460 and H69 tumor models): clear rapidly from plasma; also recorded: slightly superior
Tumor retention (comparison) (H460 tumor model mice; H460 and H69 tumor models, Conjugate 1 vs Conjugate 2): similar
Concentration in Mouse kidney (H460 tumor model mice; H460 tumor model, 48 h, individual animals): 540 nM
Average Lu in kidney [3]: 2.86 % ID/g
Average Lu in tumor [3]: 0.92 % ID/g

CCNC(=O)c1nnc(-c2cc(C(C)C)c(O)cc2O)n1-c1ccc(CN2CCN(C(=O)CCNC(=O)[C@@H](CCCCN)NC(=O)[C@@H](CCCCN)NC(=O)[C@@H](CCCCN)NC(=O)CN3CCN(CC(=O)O)CCN(CC(=O)O)CCN(CC(=O)O)CC3)CC2)cc1 [Conjugate 3]
level at time molar at 48 h ([1]; Concentration in H69 tumor, H69 tumor model, 48 h, individual animals): 200 nM
level at time molar at 24 h ([1]; Concentration in Mouse liver, H69 tumor model, individual animals): 80 nM
level at time molar at 1 h ([1]; Concentration in Mouse plasma, H69 tumor model, 1 h, individual animals): 1220 nM
level at time molar at 24 h ([1]; Concentration in Mouse plasma, H69 tumor model, individual animals): 38 nM
Concentration in H69 tumor (H69 tumor model mice): 200 nM
level at time molar at 48 h [2, 4]: 91 nM
level at time molar at 1 h [2, 5]: 4520 nM
level at time molar at 48 h [2, 5]: 4290 nM
level at time molar at 24 h [2, 6]: 11 nM
level at time molar at 48 h [2, 6]: 11 nM
Concentration in Mouse liver (H460 tumor model mice; H460 tumor model, 1 h, individual animals): 70 nM

CCNC(=O)c1nnc(-c2cc(C(C)C)c(O)cc2O)n1-c1ccc(CN2CCN(C(=O)CCNC(=O)CC[C@@H](NC(=O)CC[C@@H]3C(=O)[O][Lu]4[O]C(=O)CN5CCN(CC(=O)O)CCN3CCN(CC5)CC(=O)[O]4)C(=O)N3CCN(Cc4ccc(-n5c(C(=O)NCC)nnc5-c5cc(C(C)C)c(O)cc5O)cc4)CC3)CC2)cc1 [Conjugate 9]
Average Lu in Liver [3]: 2.92 % ID/g
Average Lu in kidney [3]: 2.40 % ID/g
Average Lu in tumor [3]: 5.73 % ID/g
Tumor uptake (comparison) [3]: noticeably higher than Conjugate 1 and Conjugate 2

CCNC(=O)c1nnc(-c2cc(C(C)C)c(O)cc2O)n1-c1ccc(CN2CCN(C(=O)CCNC(=O)[C@@H](CCC(=O)O)NC(=O)[C@@H](CCC(=O)O)NC(=O)[C@@H](CCC(=O)O)NC(=O)COCCOCCNC(=O)CCCCn3cc(CN(CCCNC(=O)CC[C@H](C(=O)O)N4CCN5CCN6CCN(CC4)CC(=O)[O][Lu]([O]C(=O)C6)[O]C(=O)C5)C(=O)CCCNC(=O)CCCc4ccc(I)cc4)nn3)CC2)cc1 [Conjugate 10]
Average Lu in Liver [3]: 1.51 % ID/g
Average Lu in kidney [3]: 11.18 % ID/g
Average Lu in tumor [3]: 8.49 % ID/g
Tumor uptake (comparison) [3]: noticeably higher than Conjugate 1 and Conjugate 2

CCNC(=O)c1nnc(-c2cc(C(C)C)c(O)cc2O)n1-c1ccc(CN2CCN(C(=O)CCNC(=O)[C@@H](CCC(=O)O)NC(=O)[C@@H](CCC(=O)O)NC(=O)[C@@H](CCC(=O)O)NC(=O)CN3CCN(CC(=O)O)CCN(CC(=O)O)CCN(CC(=O)O)CC3)CC2)cc1 [^177Lu-2, metal not drawn]
tissue uptake at 6 h (in vivo; Radioactivity in Bone Marrow): 0.01 %ID/g
tissue uptake at 6 h (in vivo; Radioactivity in Brain): 0.01 %ID/g
tissue uptake at 6 h (in vivo; Radioactivity in Eyes): 0.12 %ID/g
tissue uptake at 6 h (in vivo; Radioactivity in Kidney): 4.29 %ID/g
tissue uptake at 6 h (in vivo; Radioactivity in Liver): 0.33 %ID/g
tissue uptake at 6 h (in vivo; Radioactivity in Tumor): 1.21 %ID/g
